From patent US20260265354A1 (JIANGSU MABWELL HEALTH PHARMACEUTICAL R AND D, published 2026)

T1: Nectin-like-3 (UniProt Q8N3J6 25-367, limits assumed)
T1 construct: Bought recombinant protein; also called CADM2; IgSF4D
T1 sequence (looked up): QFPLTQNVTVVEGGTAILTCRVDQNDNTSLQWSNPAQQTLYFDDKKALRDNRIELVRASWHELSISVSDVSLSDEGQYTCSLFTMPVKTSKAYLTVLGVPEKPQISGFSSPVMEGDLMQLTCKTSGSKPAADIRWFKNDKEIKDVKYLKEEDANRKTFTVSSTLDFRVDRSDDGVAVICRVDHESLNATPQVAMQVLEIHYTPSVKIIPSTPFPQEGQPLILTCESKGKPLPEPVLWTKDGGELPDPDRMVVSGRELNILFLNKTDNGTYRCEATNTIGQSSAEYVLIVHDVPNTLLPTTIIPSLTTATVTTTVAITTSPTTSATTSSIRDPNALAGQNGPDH

T2: Nectin-1 (UniProt Q15223 31-334, limits assumed)
T2 construct: Bought recombinant protein; also called CD111; PVRL-1
T2 sequence (looked up): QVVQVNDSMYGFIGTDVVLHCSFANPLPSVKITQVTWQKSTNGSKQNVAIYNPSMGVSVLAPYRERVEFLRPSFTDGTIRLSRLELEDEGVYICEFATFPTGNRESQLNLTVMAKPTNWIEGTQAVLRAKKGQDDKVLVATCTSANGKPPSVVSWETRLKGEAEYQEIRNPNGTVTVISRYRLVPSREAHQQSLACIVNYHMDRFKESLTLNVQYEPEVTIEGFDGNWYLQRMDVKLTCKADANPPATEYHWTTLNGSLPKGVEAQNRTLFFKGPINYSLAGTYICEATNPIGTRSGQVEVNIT

T3: Nectin-like-1 (UniProt Q8N126 25-330, limits assumed)
T3 construct: Bought recombinant protein; also called CADM3; IgSF4B
T3 sequence (looked up): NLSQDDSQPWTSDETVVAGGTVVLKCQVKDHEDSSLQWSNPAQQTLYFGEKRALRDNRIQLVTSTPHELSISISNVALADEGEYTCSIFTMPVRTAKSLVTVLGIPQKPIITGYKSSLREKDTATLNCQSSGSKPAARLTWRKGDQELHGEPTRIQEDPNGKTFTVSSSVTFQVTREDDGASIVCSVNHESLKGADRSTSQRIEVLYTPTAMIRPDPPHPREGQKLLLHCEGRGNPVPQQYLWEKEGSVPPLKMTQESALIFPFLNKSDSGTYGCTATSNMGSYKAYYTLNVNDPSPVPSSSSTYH

T4: Nectin-like-4 (UniProt Q8NFZ8 21-324, limits assumed)
T4 construct: Bought recombinant protein; also called CADM4; IgSF4C
T4 sequence (looked up): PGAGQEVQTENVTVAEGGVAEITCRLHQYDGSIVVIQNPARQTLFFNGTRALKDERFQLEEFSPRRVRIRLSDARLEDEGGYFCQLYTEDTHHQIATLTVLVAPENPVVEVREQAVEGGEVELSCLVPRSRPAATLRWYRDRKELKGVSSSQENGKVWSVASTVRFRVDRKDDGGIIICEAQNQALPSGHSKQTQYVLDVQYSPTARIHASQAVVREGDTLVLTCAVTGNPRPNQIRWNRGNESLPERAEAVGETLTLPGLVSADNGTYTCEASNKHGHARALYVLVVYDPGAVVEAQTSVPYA

T5: recombinant human Nectin-4 protein (human, UniProt Q96NY8 32-349)
T5 construct: Prepared in-house (Jiangsu Mabwell) by transient transfection of CHO cells; also called PVRL-4; PRR-4
T5 sequence: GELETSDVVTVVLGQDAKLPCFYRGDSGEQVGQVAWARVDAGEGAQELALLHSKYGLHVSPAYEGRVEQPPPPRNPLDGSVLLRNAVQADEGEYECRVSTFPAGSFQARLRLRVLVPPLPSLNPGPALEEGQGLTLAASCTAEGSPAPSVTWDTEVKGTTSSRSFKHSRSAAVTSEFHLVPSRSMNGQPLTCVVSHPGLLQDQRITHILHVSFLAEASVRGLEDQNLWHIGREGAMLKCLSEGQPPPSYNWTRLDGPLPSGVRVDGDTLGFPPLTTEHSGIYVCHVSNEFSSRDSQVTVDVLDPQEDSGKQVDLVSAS


What was measured:
[1] = molecular target: T1, Nectin-like-3; assay: ELISA, coated antigen, antibody at 100 ng/ml
Method: (§1) Coating: Nectin-1, Nectin-2, Nectin-3, Nectin-4, Nectin-like-1, Nectin-like-2, Nectin-like-3, Nectin-like-4, and Nectin-like-5 were diluted to 5 μg/ml in coating buffer (carbonate buffer, pH 9.6) respectively. A 96-well plate was coat with 100 μl per well and incubated overnight at 2-8° C.;
(§2) Sample loading: The plate was taken out, patted dry, and washed twice with 200 μl/well of PBST, then patted dry. The Nectin-4 antibodies prepared in Example 1 (antibody MM11, antibody R012, and antibody R036) were diluted with 1% BSA/PBST to concentrations of 10 μg/ml, 1 μg/ml, 100 ng/ml, and 10 ng/ml, respectively. 1% BSA/PBST solution for dilution was set as a blank control. 100 μl per well was added to the 96-well plate, and incubated at room temperature for 2 hours;
(§3) Reaction termination and plate reading: 100 μl/well of 1 mol/L H3PO4 was added to terminate the reaction and the plated was read. The absorbances of wells in the plate at 450 nm with 650 nm as reference wavelength were read and recorded as OD_{450 nm-650 nm}.

[2] = molecular target: T2, Nectin-1; assay: ELISA, coated antigen, antibody at 100 ng/ml
Method: as §1, §2, §3

[3] = molecular target: T3, Nectin-like-1; assay: ELISA, coated antigen, antibody at 10000 ng/ml
Method: as §1, §2, §3

[4] = molecular target: T4, Nectin-like-4; assay: ELISA, coated antigen, antibody at 10000 ng/ml
Method: as §1, §2, §3

[5] = molecular target: T1, Nectin-like-3; assay: ELISA, coated antigen, antibody at 10000 ng/ml
Method: as §1, §2, §3

[6] = molecular target: T2, Nectin-1; assay: ELISA, coated antigen, antibody at 10000 ng/ml
Method: as §1, §2, §3

[7] = molecular target: T6, Nectin-3 (UniProt Q9NQS3 58-404, limits assumed); assay: ELISA, coated antigen, antibody at 10000 ng/ml
T6 construct: Bought recombinant protein; also called CD113; PVRL-3
T6 sequence (Q9NQS3 58-404 limits assumed): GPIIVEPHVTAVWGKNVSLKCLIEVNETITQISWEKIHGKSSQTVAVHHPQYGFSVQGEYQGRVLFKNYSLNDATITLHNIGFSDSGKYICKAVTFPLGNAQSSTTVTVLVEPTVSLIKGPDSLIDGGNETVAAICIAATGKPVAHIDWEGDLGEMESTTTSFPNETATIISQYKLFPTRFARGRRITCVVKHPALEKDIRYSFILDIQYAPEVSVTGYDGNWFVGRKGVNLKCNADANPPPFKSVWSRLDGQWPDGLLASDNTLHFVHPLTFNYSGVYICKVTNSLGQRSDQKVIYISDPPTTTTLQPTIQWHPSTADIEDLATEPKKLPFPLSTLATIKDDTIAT
Method: as §1, §2, §3

[8] = molecular target: T5, recombinant human Nectin-4 protein; assay: ELISA, coated antigen, antibody at 10000 ng/ml
Method: as §1, §2, §3

Binder	OD detection value [1]	OD detection value [2]	OD detection value [3]	OD detection value [4]	OD detection value [5]	OD detection value [6]	OD detection value [7]	OD detection value [8]
Antibody MM11 (antibody, mouse IgG1, kappa, V domains shown, Mouse monoclonal antibody from hybridoma; also called Nectin-4 mouse monoclonal antibody MM11; mouse antibody MM11) VH: DVQLQESGPGLVKPSQSLSLTCSVTGYSITSNFYWNWIRQFPGNRLEWMGYISYDGSNNYNPSLKNRISISRDTSKNQFFLKLNSVTTEDTATYYCVRADYWGQGTLVTVSA VL: DTVMTQTPLSLPVSLGDQASISCRSSQSLESSDGHAYLNWYLQKPGQSPQLLIYRVSNRFSGVLHRFSGSGSGTDFTLKISRVEAEDLGVYFCLQFTHVPFTFGSGTKLEIKR	0.031 OD450 nm-650 nm	0.008 OD450 nm-650 nm	0.012 OD450 nm-650 nm	0.009 OD450 nm-650 nm	0.032 OD450 nm-650 nm	0.012 OD450 nm-650 nm	0.006 OD450 nm-650 nm	1.97 OD450 nm-650 nm
Antibody R012 (antibody, V domains shown, Rabbit monoclonal antibody from phage display; also called Nectin-4 rabbit monoclonal antibody R012; rabbit antibody R012) VH: SKSVEESGGRLVTPGTPLTLTCTVSGFSLSTYAMSWVRQAPGKGLEYIGIISGRGTTYYASWLKGRFTISKTSTTVDLKITSPTTEDTATYFCARDAGISDVYTGYFNLWGQGTLVTVSS VL: QPVLAQLPSASAALGASAKLTCTLSSAHRTYTIAWYQQQQGEAPRYLMMLKSDGSYTKGTGVPDRFSGSSSGADRYLIISSVQAADEADYYCGADDSGGYVFGGGTQLTVTG	0.008 OD450 nm-650 nm	0.007 OD450 nm-650 nm	0.009 OD450 nm-650 nm	0.007 OD450 nm-650 nm	0.009 OD450 nm-650 nm	0.008 OD450 nm-650 nm	0.007 OD450 nm-650 nm	1.51 OD450 nm-650 nm
Antibody R036 (antibody, V domains shown, Rabbit monoclonal antibody from phage display; also called Nectin-4 rabbit monoclonal antibody R036; rabbit antibody R036) VH: SQSVEESGGRLVTPGTPLTLTCTVSGFSLSSYAMSWVRQAPGKGLEYIGIIGGRGTTYYAIWAKGRFTISKTSTTVDLKITSPTTEDTATYFCARDAGTTYVGTTYVATGYFNLWGQGTLVTVSS VL: QPVLTQPPSASAALGASAKLTCTLSSAHKTYTIAWYQQQQGEAPRYLMILKSDGSYTRGTGVPDRFSGSSSGADRYLIISSVQADDEADYYCGADDSGGYVFGGGTQLTVTG	0.007 OD450 nm-650 nm	0.007 OD450 nm-650 nm	0.008 OD450 nm-650 nm	0.006 OD450 nm-650 nm	0.008 OD450 nm-650 nm	0.006 OD450 nm-650 nm	0.008 OD450 nm-650 nm	1.63 OD450 nm-650 nm
